The values that follow are results of earlier work, collected in patent publication US20250186538A1, “BIVALIRUDIN COMPOUNDS” (The General Hospital Corporation, priority 2022, published 2025).

For the series the following is noted: in vivo.

“D-Phe-Pro-Arg-Pro-Gly-Gly-Gly-Gly-Asn-Gly-Asp-Phe-Glu-Glu-Ile-Pro-Glu-Glu-Tyr-Leu [bival]”: the Half-life entry was “about 20 min”.
